Relative Affinity Constant (Ka) (relative to Fab′-NEM defined as 1.0) and I1/2 fold relative to F(ab′)2 (fold (× the I1/2 of F(ab′)2)) data for 5 substances are collected here from patent publication US20130052130A1.

For one assay, the target named is TAG-72. Description: competition assay, single aliquots; antigen and competitor not stated.
The target of the next assay is BSM. In words: competition ELISA, BSM-coated plate; competitor is mCC49 at 0.033 ug/mL. A general note: ELISA stands for enzyme-linked immunosorbent assay.

In the assay with TAG-72, “CC49 Fab′-dPEG12-Tris(dPEG12-Tris(m-dPEG11)3)3” displayed a Relative Affinity Constant (Ka) (relative to Fab′-NEM defined as 1.0) of 0.4.
Still for that read-out and setting: under CC49 Fab′-dPEG12-Tris(m-dPEG24)3 stands 0.3; under CC49 Fab′-dPEG12-Tris(dPEG12 acid)3, 0.3.
The substance CC49 Fab′-dPEG12-Tris(dPEG24 acid)3 came in with a Relative Affinity Constant (Ka) (relative to Fab′-NEM defined as 1.0) in the assay with TAG-72 of 1. This substance also yielded an I1/2 fold relative to F(ab′)2 (fold (× the I1/2 of F(ab′)2)) with BSM of 40.
Taken in the same sequence, the figures for CC49 Fab′-NEM were 1 and 40.
